From the supplement of paper PMC10567573

B1: RBBP5 (parent)
chain: TGTSNTTAIKSIEFARKGSCFLIN
B2: APBB1IP (parent)
chain: FNYSVGFKDLNESLNALEDQDLDA

Variants of: B1
Experiment: protein stability index of a GFP-peptide fusion (GPS, HEK-293T) (PSI 1-6); higher = more stable
Settings: c terminus: a fixed tail appended
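Note: lentivirally expressed fusions sorted by FACS into six bins by GFP to DsRed ratio, PSI derived from sequencing read proportions per bin multiplied by bin number.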

Protein stability index, by site and new letter:
G2: M 2.48; A 2.02; F 1.76; Q 2.47; W 2.51; P 2.63; I 1.89; D 2.62; E 2.75; C 2.17; Y 3.22; V 2.44; S 2.11; L 2.18; H 2.03; K 2.31; T 2.14; R 2.07; N 2.29
S4: H 2.3; F 1.97; T 1.95; V 2.09; A 2.29; M 2.21; N 2.36; E 2.35; Y 2.41; Q 2.54; D 2.35; G 2.17; K 2.67; W 1.83; C 2.2; I 2.52; P 2.01; R 1.91; L 2.17
T3: C 1.98; Q 2.11; L 2.17; A 2.15; G 2.24; Y 1.94; R 1.88; K 2.9; H 2.52; S 1.9; M 2.2; V 1.87; I 1.83; E 2.55; W 2.02; P 2.46; F 1.61; N 1.86; D 2.46
N5: E 2.57; V 2.38; F 2.2; L 1.9; T 2.09; P 2.08; Q 2.58; I 1.95; C 1.93; S 2.02; H 2.12; A 2.1; G 2.12; D 2.35; K 2.15; R 2.36; M 1.66; Y 1.63; W 1.64
I12: E 3.5; S 2.67; M 2.61; C 2.67; V 2.6; D 2.79; K 2.23; G 2.4; T 2.61; Q 3.29; N 2.67; R 2.57; W 2.4; P 3; F 2; A 2.94; H 2.94; Y 2.12; L 1.78
T7: M 1.95; W 1.95; R 2.15; K 2.04; Y 1.89; P 2.74; L 1.77; C 1.26; I 2.23; D 2.3; S 2.4; E 2.51; A 2.85; F 1.93; V 1.96; Q 2.66; H 1.97; N 2.14; G 2.56
S11: W 2.77; K 2.13; V 2.48; N 2.92; P 2.61; G 2.12; D 2.6; T 2.1; M 2.09; Q 2.74; H 3.02; E 2.23; A 2.18; C 1.74; Y 1.32; L 2.5; I 3.31; F 2.45; R 2.12
I9: S 2.12; M 2.67; P 2.61; R 2.34; E 2.91; H 2.35; V 2.76; F 1.98; T 2.92; K 2.47; G 2.37; A 2.48; D 2.86; Y 1.88; N 2.44; W 1.5; C 2.28; L 2.03; Q 2.62
E13: S 2.38; C 1.97; G 2.11; L 2.38; R 1.72; P 1.75; F 2.75; I 2.89; D 2.32; Q 1.67; A 1.92; H 2.4; M 2.15; N 1.75; K 2.19
T6: H 2.67; I 1.63; A 2.87; Q 2.12; S 2.64; C 2.05; M 2.04; W 1.74; L 2.16; G 1.98; Y 1.87; D 2.55; R 1.55; E 2.82; P 2.29; F 2.09; N 3.06; K 2.15; V 1.87
A8: I 1.74; S 2.01; T 2.68; R 1.62; N 2.56; P 2.69; V 1.58; D 2.36; Q 2.21; M 2.21; W 2.62; L 2.17; K 2.2; G 2.84; F 1.81; E 2.71; C 2.71; H 1.85; Y 2.22
K10: M 1.94; V 1.93; I 2.15; R 2.29; L 2.74; E 2.62; Y 3.11; A 1.64; F 2.9; H 2.77; C 2.38; P 2.38; S 2.93; T 1.77; G 2.19; N 1.86; Q 2.82; D 2.08
T1: A 2.15; V 1.87; P 2.47; S 2.2; Y 1.79; F 1.88; E 3.07; G 2.19; I 1.79; N 2.3; R 2.75; C 1.53; H 2.59; Q 2.79; L 2.11; K 2.45; M 2.43; W 1.69; D 3.69

Variants of: B2
Experiment: as above
Settings: c terminus: a fixed tail appended

Protein stability index, by site and new letter:
A24: W 3.77; R 3.83; L 4.09; N 4.5; M 3.85; P 4.42; V 4.5; Q 4.72; G 3.68; I 4.07; K 4.81; C 4.24; Y 3.55; E 4.91; S 4.59; F 3.85; T 4.45; D 4.68; H 4.52
Q20: M 3.7; T 4.84; F 3.57; H 4.42; V 4; I 3.97; K 4.2; N 4.53; Y 3.85; W 3.7; R 3.21; S 3.97; E 4.69; L 3.88; P 3.97; G 4.57
D21: H 3.33; C 3.57; T 4.14; L 2.8; M 3.83; Q 3.75; F 2.34; W 2.43; S 4.33; P 3.77; G 3.94; N 4.07; R 3; Y 2.38; K 4.19; A 3.69; E 4.25; I 2.81; V 3.38
L22: S 4.76; R 4.5; N 4.79; A 5.06; D 4.68; G 5.28; V 4.6; M 4.72; I 4.74; Y 4.37; H 4.96; F 4.49; K 4.86; T 4.82; E 5.45; W 3.86; Q 4.67; P 4.92; C 4.62
D23: P 4.38; W 1.81; L 3.14; Y 2.57; Q 4.22; C 3.33; M 2.86; A 3.79; V 3.18; H 3.69; I 3.56; S 4.02; N 4.31; E 4.22; K 3.87; F 2.44; T 3.85; G 4.41; R 3.81
